Laboratory results as given in patent US20220380441A1 (VIR BIOTECHNOLOGY, published 2022).
Positions count from the first letter of the chain named.

T1: Recombinant human FcγRIIb, His-tagged (human, UniProt P31994 43-217)
T1 construct: not shown: C-terminal 6-His tag
T1 sequence (looked up): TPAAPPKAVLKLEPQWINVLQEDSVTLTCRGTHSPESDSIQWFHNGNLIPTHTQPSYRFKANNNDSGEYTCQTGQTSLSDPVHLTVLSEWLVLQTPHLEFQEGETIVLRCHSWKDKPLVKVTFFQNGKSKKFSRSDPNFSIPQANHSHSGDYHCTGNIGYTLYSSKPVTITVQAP

T2: Recombinant human FcγRIIa (H131), His-tagged (human, UniProt P12318 34-218)
T2 construct: also called FcγRIIa allele H131; not shown: C-terminal 6-His tag
T2 sequence (looked up): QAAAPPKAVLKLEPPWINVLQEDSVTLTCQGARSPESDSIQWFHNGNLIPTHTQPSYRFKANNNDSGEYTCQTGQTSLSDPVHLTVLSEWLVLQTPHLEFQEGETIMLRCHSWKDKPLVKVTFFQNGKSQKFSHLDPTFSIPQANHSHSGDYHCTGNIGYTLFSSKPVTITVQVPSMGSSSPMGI

T3: Recombinant human FcγRIIa (R131), His-tagged (human, UniProt P12318 34-218)
T3 construct: also called FcγRIIa allele R131
T3 sequence (looked up): T2 sequence (looked up) with H134R

B1: HBC34-V35-MLNS (antibody, human IgG1, lambda)
heavy: not shown
light: SYELTQPPSVSVSPGQTVSIPCSGDKLGNKNVAWFQHKPGQSPVLVIYEVKYRPSGIPERFSGSNSGNTATLTISGTQAMDEAAYFCQTFDSTTVVFGGGTRLTVLGQPKAAPSVTLFPPSSEELQANKATLVCLISDFYPGAVTVAWKADSSPVKAGVETTTPSKQSNNKYAASSYLSLTPEQWKSHRSYSCQVTHEGSTVEKTVAPTECS
B2: HBC34-V35-MLNS-GAALIE (antibody, human IgG1, lambda)
heavy: ELQLVESGGGWVQPGGSQRLSCAASGRIFRSFYMSWVRQAPGKGLEWVATINQDGSEKLYVDSVKGRFTISRDNAKNSLFLQMNNLRVEDTAVYYCAAWSGNSGGMDVWGQGTTVSVSSASTKGPSVFPLAPSSKSTSGGTAALGCLVKDYFPEPVTVSWNSGALTSGVHTFPAVLQSSGLYSLSSVVTVPSSSLGTQTYICNVNHKPSNTKVDKKVEPKSCDKTHTCPPCPAPELLAGPSVFLFPPKPKDTLMISRTPEVTCVVVDVSHEDPEVKFNWYVDGVEVHNAKTKPREEQYNSTYRVVSVLTVLHQDWLNGKEYKCKVSNKALPLPEEKTISKAKGQPREPQVYTLPPSRDELTKNQVSLTCLVKGFYPSDIAVEWESNGQPENNYKTTPPVLDSDGSFFLYSKLTVDKSRWQQGNVFSCSVLHEALHSHYTQKSLSLSPGK
light: B1 light

Columns and labels:
[1] = target: T4, Human complement component C1q (human, UniProt P02745 23-245; P02746 28-253; P02747 29-245); assay: BLI (Octet RED96), IgG captured on anti-human Fab (CH1) sensors, C1q at 3 µg/ml
T4 construct: also called human C1q; human complement protein C1q
Protocol: (§1) IgG-loaded sensors were then exposed for 4 minutes to a solution of kinetics buffer (pH 7.1) containing 3 μg/ml of purified human C1q (left part of the plot), followed by a dissociation step in the same buffer for additional 4 minutes (right part of the plot). Association and dissociation profiles were measured in real time as change in the interference pattern using an Octet RED96 (FortéBio).
(§2) IgG-loaded sensors were then exposed for 4 minutes to a solution of kinetics buffer (pH 7.1) containing 3 μg/ml of purified human C1q (left part of the plot), followed by a dissociation step in the same buffer for 4 additional minutes (right part of the plot). Association and dissociation profiles were measured in real time as change in the interference pattern using an Octet RED96 (FortéBio).

[2] = target: T1, Recombinant human FcγRIIb, His-tagged; assay: BLI (Octet RED96), His-tagged FcγR on anti-penta-His sensors, mAb at 2 µg/ml cross-linked with anti-human F(ab')2
Protocol: (§3) His-tagged human FcγRs ((A) FcγRIIa allele H131; (B) FcγRIIa allele R131; (C) FcγRIIIa allele F158; (D) FcγRIIIa allele V158; (E) FcγRIIb) at 2 μg/ml were captured onto anti-penta-His sensors for 6 minutes. FcγRs-loaded sensors were then exposed for 5 minutes to a solution of kinetics buffer (pH 7.1) containing 2 μg/ml of each mAb (left part of the plot) in the presence 1 μg/ml of affiniPure F(ab′)₂ Fragment Goat Anti-Human IgG, F(ab′)₂ fragment specific (to cross-link human mAbs through the Fab fragment), followed by a dissociation step in the same buffer for additional 4 minutes (right part of the plot). Association and dissociation profiles were measured in real time as change in the interference pattern using an Octet RED96 (FortéBio).
(§4) Briefly, His-tagged human FcγRs (FcγRIIa allele H131, FcγRIIa allele R131, FcγRIIAa allele F158, FcγRIIIa allele V158 and FcγRIIb) at 2 μg/ml were captured onto anti-penta-His sensors for 6 minutes. FcγR-loaded sensors were then exposed for 4 minutes to a solution of kinetics buffer (pH 7.1) containing 2 μg/ml of each mAb in the presence 1 μg/ml of affiniPure F(ab′)2 Fragment Goat Anti-Human IgG, F(ab′)2 fragment-specific (to cross-link human mAbs through the Fab fragment), followed by a dissociation step in the same buffer for 4 additional minutes (right part of the plot). Association and dissociation profiles were measured in real time as change in the interference pattern using an Octet RED96 (FortéBio).

[3] = target: T5, Recombinant human FcγRIIIa (F158), His-tagged (human, UniProt P08637 17-208); assay: as above
T5 construct: also called FcγRIIIa allele F158; not shown: C-terminal 6-His tag

[4] = target: T6, Recombinant human FcγRIIIa (V158), His-tagged (human, UniProt P08637 17-208); assay: as above
T6 construct: also called FcγRIIIa allele V158; not shown: C-terminal 6-His tag

[5] = target: T2, Recombinant human FcγRIIa (H131), …; assay: as above
Protocol: as §3, §4

[6] = target: T3, Recombinant human FcγRIIa (R131), …; assay: as above
Protocol: as §3, §4

[7] = target: T4, Human complement component C1q; assay: BLI (Octet RED96), IgG captured on anti-human Fab (CH1) sensors
Protocol: as §1, §2

T6 sequence (P08637 17-208 F176V limits assumed): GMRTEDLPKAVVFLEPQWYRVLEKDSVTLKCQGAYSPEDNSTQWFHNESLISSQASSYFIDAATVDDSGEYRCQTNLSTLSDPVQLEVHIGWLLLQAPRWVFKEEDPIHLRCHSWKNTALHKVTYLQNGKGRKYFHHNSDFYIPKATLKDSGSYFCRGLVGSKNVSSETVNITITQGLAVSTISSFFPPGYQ
T5 sequence (P08637 17-208 limits assumed): as the sequence (P08637 17-208 F176V limits assumed) above, with V160F counted along it
T4 sequence (P02745 23-245 limits assumed, chain 1 of 3): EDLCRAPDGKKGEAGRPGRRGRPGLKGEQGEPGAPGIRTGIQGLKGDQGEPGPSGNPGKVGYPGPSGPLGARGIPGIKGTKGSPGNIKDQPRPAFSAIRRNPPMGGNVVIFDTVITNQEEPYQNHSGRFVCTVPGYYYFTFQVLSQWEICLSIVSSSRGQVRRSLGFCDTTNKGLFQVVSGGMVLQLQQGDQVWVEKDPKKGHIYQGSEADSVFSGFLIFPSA
T4 sequence (P02746 28-253 limits assumed, chain 2 of 3): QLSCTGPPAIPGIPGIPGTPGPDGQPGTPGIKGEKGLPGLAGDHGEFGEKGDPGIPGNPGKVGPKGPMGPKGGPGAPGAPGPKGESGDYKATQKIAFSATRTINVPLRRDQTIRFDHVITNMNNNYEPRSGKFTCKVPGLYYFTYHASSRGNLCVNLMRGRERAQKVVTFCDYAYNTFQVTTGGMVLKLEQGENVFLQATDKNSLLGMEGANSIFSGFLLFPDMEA
T4 sequence (P02747 29-245 limits assumed, chain 3 of 3): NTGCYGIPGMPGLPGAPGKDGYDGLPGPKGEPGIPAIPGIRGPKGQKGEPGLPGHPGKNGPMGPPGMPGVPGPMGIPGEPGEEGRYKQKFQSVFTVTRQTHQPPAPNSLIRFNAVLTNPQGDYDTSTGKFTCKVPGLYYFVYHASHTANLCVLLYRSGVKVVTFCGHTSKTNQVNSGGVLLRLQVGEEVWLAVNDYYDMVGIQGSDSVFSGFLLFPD

Binder	binding result [1]	binding result [2]	binding result [3]	binding result [4]	binding result [5]	binding result [6]	binding result [7]
B1	binds	binds	binds	binds	binds	binds	
B2			binds	binds	binds	binds	no binding (tested: 3 µg/ml of purified human C1q)
